In the supplement of paper PMC9170038:

System: K4 kissing-loop RNA reporter
Assay: apparent KD of K4 kissing-loop reporter; higher = weaker reporter binding
Settings: Eterna round: R107
Method: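 RNA-MaP round R107: designed RNA switches with theophylline, tryptophan, arginine or FMN aptamers are transcribed on-chip within common flanks. They are titrated with a labelled K4 kissing-loop RNA reporter in RNA-MaP buffer (100 mM Tris pH 7.5, 80 mM KCl, 4 mM MgCl2), without ligand or with the indicated ligand. Median apparent KD per design.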

[1] = input ligand: theophylline 20 uM
[2] = input ligand: tryptophan 2.4 mM
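Further: bound reporter read as fluorescence of individual clusters on recovered sequencing chips by microscopy, with normalized cluster intensities fitted with a binding model.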

Sequence | apparent KD of K4 kissing-loop reporter (input ligand: FMN 200 uM) | apparent KD of K4 kissing-loop reporter (input ligand: arginine 13.2 mM) | apparent KD of K4 kissing-loop reporter (input ligand: none) | apparent KD of K4 kissing-loop reporter [1] | apparent KD of K4 kissing-loop reporter [2]
UGUCAUGGAAACAUGAACGUUGAUGUUCGACGAGGACCGGUACGGCCGCCACUCGAGUAAUAGUCAGUGAUGUUGACUUGUCUAA [KL-SSTryp-A form1 sub3] | 74.2 nM | 107 nM | 91.8 nM | 131 nM | 76.5 nM
UGUCAUUGGUCGGCCGCCACUUCAAAAGGUCAAAGACCAGAGUGAUGUUCUUCACGAAACGUGAGAAGGACCGGGACCGAUGACU [TrypBS 12 #SwitchBubble #K4Middle] | 226 nM | 123 nM | 191 nM | 266 nM | 638 nM
UGUCAUUGGUCGGCCGCCACUUCAAGGUCAAAGACCAAAGAGUGAUGUUCUUAGACGAAAGUCAGAAGGACCGGGACCGAUGACU [TrypBS 9 #SwitchBubble #K4Middle] | 318 nM | 144 nM | 204 nM | 245 nM | 727 nM
UGUCAUUGGUCGGCCGCCACUUCAUAGAGAGUGAUGUUCUUAAAGACGGAUCGAAAGAUCUGUCGAAGGACCGGGACCGAUGACU [FiskerMod 9 - Jieux - Same State - Tryptophan B] | 997 nM | 676 nM | 1400 nM | 783 nM | 302 nM
UGUCAUUGGUCGGCCGCCACUUCGUGUAGAGUGAUGUUUUGUAGGACGGAUCGAAAGAUCUGUCGAAGGACCGGGACCGAUGACU [FiskerMod 18 - Jieux - Same State - Tryptophan B] | 500 nM | 189 nM | 459 nM | 336 nM | 1100 nM
UGUCUUCAGUGAUGUUGAUGACAACACUUAAAGGAUAUGCGAGAGAGCAGAAGGUUAAACAACGCGCAAAUCAAGGAGGGUCUAG [theeternabot_exclusion_KL_FMN_A_30] | 193 nM | 161 nM | 178 nM | 196 nM | 174 nM
UGUGAACAAAAGUAGAGUGGACCACUAUAGCGAGGACCGGUACGGCCGCCACUCGUGUAUGAAUUCAGUGAUGUUGAAAAGAGCU [whbob_EX_Tryp_A_t11] | 131 nM | 187 nM | 138 nM | 254 nM | 134 nM
UGUGCCAAAUGUGAUACCAGCUUCCUGCAGUGAUGUUGCAUACGAGUGAUGUUCGUCCGAGGCCCUUGGCAGCGCAGUCGUUUGA [Same State Theophylline B GF 27] | 450 nM | 442 nM | 528 nM | 437 nM | 352 nM
UGUGCCAACAGUGAUACCAGCGUGGAGUGAUGUUCCGAGGAUCGGAGUGAUGUUCCGAAGCGCCCUUGGCAGCGCAGAAGCGCGA [Exclusion Theophylline B GF 26] | 239 nM | 156 nM | 186 nM | 189 nM | 182 nM
UGUGUUGUUGUGAUGUUUAGUGUUGUUGGGCAGGAUAUCGUAGAGGCGAGAAGGGCUUGUGUGCUGUAUGAGUGAUGUUUGUAGG [xrrxmullin] | 372 nM | 238 nM | 428 nM | 262 nM | 322 nM
UGUGUUGUUUUGAUGUUUGGUGUAAGUUGGCAGGAUAUCGUAGAGGCGAGAAGGGCUUUUAUGCGUUAUGAGUGAUGUUUGUAGG [zrrzmullin] | 640 nM | 330 nM | 538 nM | 404 nM | 699 nM
UGUGUUGUUUUGAUGUUUGGUGUUGCUUGGCAGGAUAUCGUAGAGGCGAGAAGGGCUUGUGAGCGGUAUGAGUGAUGUUUGUAGG [zwwrmullin] | 485 nM | 282 nM | 455 nM | 416 nM | 336 nM
UGUUCAAGUGAUGUUUGAGACUAGGUGGAUACCAGCGCAUGCAGUCGCCCUUGGCAGCCAGAAACCAACGCCGCGCGCUUCGGCU [theeternabot_sameState_KL_Theo_A_39] | 342 nM | 325 nM | 464 nM | 350 nM | 334 nM
UGUUUUUACUGAAGGAGCGGCAAUUGAUACGUAGAUAUAGUGAUGUUAUAUAAGAUAGAGAGCCAGGUAGGUCGCAGAAUGAAUC [ExArgB.aD] | 209 nM | 188 nM | 190 nM | 242 nM | 156 nM
UGUUUUUACUGAAGGAGCGGCAAUUGAUACGUAGAUAUAGUGAUGUUAUAUAAGAUAGAGAGCCAGGUAGGUCGCAGAGUUUUUC [ExArgB.Z] | 167 nM | 167 nM | 161 nM | 179 nM | 154 nM
UUACCAAGUGAUGUUUGGAAAUAUCCUAGGCAGGAUAUGCGGAAACGCAGAAGGGCCACCUUAUAGUGAAGGAAACUUCGCUAUU [Ex FMN A 2] | 163 nM | 124 nM | 140 nM | 141 nM | 142 nM
